B1: Example 130 (peptide)
peptide: cyclo(YRQCRG[dP]RR[2Nal]CY[Cit]K[dP]P)
modifications: disulfide 4-11
SMILES: N=C(N)NCCC[C@@H]1NC(=O)[C@@H]2CSSC[C@H](NC(=O)[C@H](Cc3ccc4ccccc4c3)NC(=O)[C@H](CCCNC(=N)N)NC(=O)[C@H](CCCNC(=N)N)NC(=O)[C@H]3CCCN3C(=O)CNC1=O)C(=O)N[C@@H](Cc1ccc(O)cc1)C(=O)N[C@@H](CCCNC(N)=O)C(=O)N[C@@H](CCCCN)C(=O)N1CCC[C@@H]1C(=O)N1CCC[C@H]1C(=O)N[C@@H](Cc1ccc(O)cc1)C(=O)N[C@@H](CCCNC(=N)N)C(=O)N[C@@H](CCC(N)=O)C(=O)N2
B2: Example 133 (peptide)
peptide: cyclo(YR[Cit]CRG[dP]RR[2Nal]CYTK[dP]P)
modifications: disulfide 4-11
SMILES: C[C@@H](O)[C@@H]1NC(=O)[C@H](Cc2ccc(O)cc2)NC(=O)[C@@H]2CSSC[C@H](NC(=O)[C@H](CCCNC(N)=O)NC(=O)[C@H](CCCNC(=N)N)NC(=O)[C@H](Cc3ccc(O)cc3)NC(=O)[C@@H]3CCCN3C(=O)[C@H]3CCCN3C(=O)[C@H](CCCCN)NC1=O)C(=O)N[C@@H](CCCNC(=N)N)C(=O)NCC(=O)N1CCC[C@@H]1C(=O)N[C@@H](CCCNC(=N)N)C(=O)N[C@@H](CCCNC(=N)N)C(=O)N[C@@H](Cc1ccc3ccccc3c1)C(=O)N2
B3: Example 134 (peptide)
peptide: cyclo(YR[Cit]CRG[dP][Dab]R[2Nal]CY[Cit]K[dP]P)
modifications: disulfide 4-11
SMILES: N=C(N)NCCC[C@@H]1NC(=O)[C@@H]2CSSC[C@H](NC(=O)[C@H](Cc3ccc4ccccc4c3)NC(=O)[C@H](CCCNC(=N)N)NC(=O)[C@H](CCN)NC(=O)[C@H]3CCCN3C(=O)CNC1=O)C(=O)N[C@@H](Cc1ccc(O)cc1)C(=O)N[C@@H](CCCNC(N)=O)C(=O)N[C@@H](CCCCN)C(=O)N1CCC[C@@H]1C(=O)N1CCC[C@H]1C(=O)N[C@@H](Cc1ccc(O)cc1)C(=O)N[C@@H](CCCNC(=N)N)C(=O)N[C@@H](CCCNC(N)=O)C(=O)N2
B4: Example 129 (peptide)
peptide: cyclo(YR[Cit]CRG[dP]RR[2Nal]CY[Sar]K[dP]P)
modifications: disulfide 4-11
SMILES: CN1CC(=O)N[C@@H](CCCCN)C(=O)N2CCC[C@@H]2C(=O)N2CCC[C@H]2C(=O)N[C@@H](Cc2ccc(O)cc2)C(=O)N[C@@H](CCCNC(=N)N)C(=O)N[C@@H](CCCNC(N)=O)C(=O)N[C@H]2CSSC[C@H](NC(=O)[C@H](Cc3ccc4ccccc4c3)NC(=O)[C@H](CCCNC(=N)N)NC(=O)[C@H](CCCNC(=N)N)NC(=O)[C@H]3CCCN3C(=O)CNC(=O)[C@H](CCCNC(=N)N)NC2=O)C(=O)N[C@@H](Cc2ccc(O)cc2)C1=O
B5: Example 128 (peptide)
peptide: cyclo(YR[Cit]CRG[dP]RRWCY[Cit]K[dP]P)
modifications: disulfide 4-11
SMILES: N=C(N)NCCC[C@@H]1NC(=O)[C@@H]2CSSC[C@H](NC(=O)[C@H](Cc3c[nH]c4ccccc34)NC(=O)[C@H](CCCNC(=N)N)NC(=O)[C@H](CCCNC(=N)N)NC(=O)[C@H]3CCCN3C(=O)CNC1=O)C(=O)N[C@@H](Cc1ccc(O)cc1)C(=O)N[C@@H](CCCNC(N)=O)C(=O)N[C@@H](CCCCN)C(=O)N1CCC[C@@H]1C(=O)N1CCC[C@H]1C(=O)N[C@@H](Cc1ccc(O)cc1)C(=O)N[C@@H](CCCNC(=N)N)C(=O)N[C@@H](CCCNC(N)=O)C(=O)N2
B6: Example 23 (peptide)
peptide: cyclo(YR[Cit]FRF[dP]RR[2Nal]VY[Cit]K[dP]P)
SMILES: CC(C)[C@@H]1NC(=O)[C@H](Cc2ccc3ccccc3c2)NC(=O)[C@H](CCCNC(=N)N)NC(=O)[C@H](CCCNC(=N)N)NC(=O)[C@H]2CCCN2C(=O)[C@H](Cc2ccccc2)NC(=O)[C@H](CCCNC(=N)N)NC(=O)[C@H](Cc2ccccc2)NC(=O)[C@H](CCCNC(N)=O)NC(=O)[C@H](CCCNC(=N)N)NC(=O)[C@H](Cc2ccc(O)cc2)NC(=O)[C@@H]2CCCN2C(=O)[C@H]2CCCN2C(=O)[C@H](CCCCN)NC(=O)[C@H](CCCNC(N)=O)NC(=O)[C@H](Cc2ccc(O)cc2)NC1=O
B7: Example 127 (peptide)
peptide: cyclo(YR[Cit]CRG[dP]RR[2Nal]CY[Cit][NMeK][dP]P)
modifications: disulfide 4-11
SMILES: CN1C(=O)[C@H](CCCNC(N)=O)NC(=O)[C@H](Cc2ccc(O)cc2)NC(=O)[C@@H]2CSSC[C@H](NC(=O)[C@H](CCCNC(N)=O)NC(=O)[C@H](CCCNC(=N)N)NC(=O)[C@H](Cc3ccc(O)cc3)NC(=O)[C@@H]3CCCN3C(=O)[C@H]3CCCN3C(=O)[C@@H]1CCCCN)C(=O)N[C@@H](CCCNC(=N)N)C(=O)NCC(=O)N1CCC[C@@H]1C(=O)N[C@@H](CCCNC(=N)N)C(=O)N[C@@H](CCCNC(=N)N)C(=O)N[C@@H](Cc1ccc3ccccc3c1)C(=O)N2
B8: Example 123 (peptide)
peptide: cyclo(YR[Cit]CRG[dP]RRWCY[Cit]K[dP]P)
modifications: disulfide 4-11
SMILES: N=C(N)NCCC[C@@H]1NC(=O)[C@@H]2CSSC[C@H](NC(=O)[C@H](Cc3c[nH]c4ccccc34)NC(=O)[C@H](CCCNC(=N)N)NC(=O)[C@H](CCCNC(=N)N)NC(=O)[C@H]3CCCN3C(=O)CNC1=O)C(=O)N[C@@H](Cc1ccc(O)cc1)C(=O)N[C@@H](CCCNC(N)=O)C(=O)N[C@@H](CCCCN)C(=O)N1CCC[C@@H]1C(=O)N1CCC[C@H]1C(=O)N[C@@H](Cc1ccc(O)cc1)C(=O)N[C@@H](CCCNC(=N)N)C(=O)N[C@@H](CCCNC(N)=O)C(=O)N2
B9: Example 131 (peptide)
peptide: cyclo(YRTCRG[dP]RR[2Nal]CY[Cit]K[dP]P)
modifications: disulfide 4-11
SMILES: C[C@@H](O)[C@@H]1NC(=O)[C@H](CCCNC(=N)N)NC(=O)[C@H](Cc2ccc(O)cc2)NC(=O)[C@@H]2CCCN2C(=O)[C@H]2CCCN2C(=O)[C@H](CCCCN)NC(=O)[C@H](CCCNC(N)=O)NC(=O)[C@H](Cc2ccc(O)cc2)NC(=O)[C@@H]2CSSC[C@H](NC1=O)C(=O)N[C@@H](CCCNC(=N)N)C(=O)NCC(=O)N1CCC[C@@H]1C(=O)N[C@@H](CCCNC(=N)N)C(=O)N[C@@H](CCCNC(=N)N)C(=O)N[C@@H](Cc1ccc3ccccc3c1)C(=O)N2
B10: Example 122 (peptide)
peptide: cyclo(YR[Cit]CRG[dP][Phe(4-F)]RWCY[Cit]K[dP]P)
modifications: disulfide 4-11
SMILES: N=C(N)NCCC[C@@H]1NC(=O)[C@@H]2CSSC[C@H](NC(=O)[C@H](Cc3c[nH]c4ccccc34)NC(=O)[C@H](CCCNC(=N)N)NC(=O)[C@H](Cc3ccc(F)cc3)NC(=O)[C@H]3CCCN3C(=O)CNC1=O)C(=O)N[C@@H](Cc1ccc(O)cc1)C(=O)N[C@@H](CCCNC(N)=O)C(=O)N[C@@H](CCCCN)C(=O)N1CCC[C@@H]1C(=O)N1CCC[C@H]1C(=O)N[C@@H](Cc1ccc(O)cc1)C(=O)N[C@@H](CCCNC(=N)N)C(=O)N[C@@H](CCCNC(N)=O)C(=O)N2
B11: Example 132 (peptide)
peptide: cyclo(YR[Cit]CRG[dP]RR[2Nal]CYTK[dP]P)
modifications: disulfide 4-11
SMILES: C[C@@H](O)[C@@H]1NC(=O)[C@H](Cc2ccc(O)cc2)NC(=O)[C@@H]2CSSC[C@H](NC(=O)[C@H](CCCNC(N)=O)NC(=O)[C@H](CCCNC(=N)N)NC(=O)[C@H](Cc3ccc(O)cc3)NC(=O)[C@@H]3CCCN3C(=O)[C@H]3CCCN3C(=O)[C@H](CCCCN)NC1=O)C(=O)N[C@@H](CCCNC(=N)N)C(=O)NCC(=O)N1CCC[C@@H]1C(=O)N[C@@H](CCCNC(=N)N)C(=O)N[C@@H](CCCNC(=N)N)C(=O)N[C@@H](Cc1ccc3ccccc3c1)C(=O)N2
B12: Example 126 (peptide)
peptide: cyclo(YR[Cit]CRG[dP]R[(Pip)G][2Nal]CY[Cit]K[dP]P)
modifications: disulfide 4-11
SMILES: CN1CCN(CCCN2CC(=O)N[C@@H](Cc3ccc4ccccc4c3)C(=O)N[C@H]3CSSC[C@H](NC(=O)[C@H](CCCNC(N)=O)NC(=O)[C@H](CCCNC(=N)N)NC(=O)[C@H](Cc4ccc(O)cc4)NC(=O)[C@@H]4CCCN4C(=O)[C@H]4CCCN4C(=O)[C@H](CCCCN)NC(=O)[C@H](CCCNC(N)=O)NC(=O)[C@H](Cc4ccc(O)cc4)NC3=O)C(=O)N[C@@H](CCCNC(=N)N)C(=O)NCC(=O)N3CCC[C@@H]3C(=O)N[C@@H](CCCNC(=N)N)C2=O)CC1
B13: Example 125 (peptide)
peptide: cyclo(YR[Cit]CRG[dP][N(3-imidazol-1-ylpropyl)Gly]R[2Nal]CY[Cit]K[dP]P)
modifications: disulfide 4-11
SMILES: N=C(N)NCCC[C@@H]1NC(=O)CN(CCCn2ccnc2)C(=O)[C@H]2CCCN2C(=O)CNC(=O)[C@H](CCCNC(=N)N)NC(=O)[C@@H]2CSSC[C@H](NC(=O)[C@H](Cc3ccc4ccccc4c3)NC1=O)C(=O)N[C@@H](Cc1ccc(O)cc1)C(=O)N[C@@H](CCCNC(N)=O)C(=O)N[C@@H](CCCCN)C(=O)N1CCC[C@@H]1C(=O)N1CCC[C@H]1C(=O)N[C@@H](Cc1ccc(O)cc1)C(=O)N[C@@H](CCCNC(=N)N)C(=O)N[C@@H](CCCNC(N)=O)C(=O)N2
B14: Example 124 (peptide)
peptide: cyclo(YR[Cit]CRG[dP][IsOrn]R[2Nal]CY[Cit]K[dP]P)
modifications: disulfide 4-11
SMILES: CC(C)CN(CCC[C@@H]1NC(=O)[C@H]2CCCN2C(=O)CNC(=O)[C@H](CCCNC(=N)N)NC(=O)[C@@H]2CSSC[C@H](NC(=O)[C@H](Cc3ccc4ccccc4c3)NC(=O)[C@H](CCCNC(=N)N)NC1=O)C(=O)N[C@@H](Cc1ccc(O)cc1)C(=O)N[C@@H](CCCNC(N)=O)C(=O)N[C@@H](CCCCN)C(=O)N1CCC[C@@H]1C(=O)N1CCC[C@H]1C(=O)N[C@@H](Cc1ccc(O)cc1)C(=O)N[C@@H](CCCNC(=N)N)C(=O)N[C@@H](CCCNC(N)=O)C(=O)N2)CC(C)C

Here are results for 14 molecules from patent US20150087577A1 (POLYPHOR, published 2015).

*1 amine or outer side, *2 acyl side, *3 side chain or, on linkers, in order; H or OH if unused. Bridges are numbered along the chain shown (N, C = ends). [ ]: non-standard residue; d: D form. (Pip)G = N-{3-[1'-(4'-methylpiperazinyl)]-propyl}-glycine, CN1CCN(CCCN(CC(=O)[*:2])[*:1])CC1; IsOrn = L-(N',N'-diisobutyl)-ornithine, CC(C)CN(CCC[C@H](N[*:1])C(=O)[*:2])CC(C)C; N(3-imidazol-1-ylpropyl)Gly = O=C(O)CNCCCn1ccnc1; Phe(4-F) = N[C@@H](Cc1ccc(F)cc1)C(=O)O; 2Nal = N[C@@H](Cc1ccc2ccccc2c1)C(=O)O; Cit = NC(=O)NCCC[C@H](N)C(=O)O; NMeK = CN[C@@H](CCCCN)C(=O)O; Dab = NCC[C@H](N)C(=O)O; Sar = CNCC(=O)O

human CXCR4, sequence (P61073 whole entry): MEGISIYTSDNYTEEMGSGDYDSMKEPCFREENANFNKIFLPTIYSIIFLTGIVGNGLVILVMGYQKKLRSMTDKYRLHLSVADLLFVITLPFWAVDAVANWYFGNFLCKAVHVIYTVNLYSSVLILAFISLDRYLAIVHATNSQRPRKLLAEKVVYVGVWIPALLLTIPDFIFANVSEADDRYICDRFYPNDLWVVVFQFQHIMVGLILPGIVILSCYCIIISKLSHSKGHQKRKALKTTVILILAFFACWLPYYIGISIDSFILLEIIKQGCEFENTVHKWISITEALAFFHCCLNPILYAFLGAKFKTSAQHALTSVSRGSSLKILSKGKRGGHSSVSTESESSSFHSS

The assay addresses human CXCR4 (human, UniProt P61073 1-352). In words: cell-based or functional assay.
For the molecule B1, the “IC50 (nM) Ca2+ assay (method 2)” value is 4.1 nM.
On the same count and under the same terms, with B2 the figure was 5.3 nM.
As for B3, the “IC50 (nM) Ca2+ assay (method 2)” value is 1.7 nM.
For the molecule B4, the “IC50 (nM) Ca2+ assay (method 2)” value was determined as 10.9 nM.
The same measure, in the same setting: with B5 the figure was 4.5 nM.
For the molecule B6, the “IC50 (nM) Ca2+ assay (method 1)” value came out at 1550 nM.
B7: the “IC50 (nM) Ca2+ assay (method 2)” value is 52.2 nM.
The same measure, in the same setting: with B8 the figure was 10 nM; with B9, 2.4 nM; with B10, 8.8 nM.
On the same count and under the same terms, with B11 the figure was 1.9 nM; with B12, 19.5 nM; with B13, 330 nM.
Turning to B14, the “IC50 (nM) Ca2+ assay (method 2)” value worked out at 5.9 nM.
